Source: patent publication US20150344571A1 (KANGWON NATIONAL UNIVERSITY UNIVERSITY INDUSTRY COOPERATION …, published 2015)

What was measured:
[1] = molecular target: T1, human L1CAM (purified extracellular domain) (human, UniProt P32004 20-1112); assay: Octet RED (called SPR in the filing), antibody on AHC sensor, soluble human L1CAM
T1 construct: range 1-1112; Expressed in HEK293T from pJK-dhfr2-L1-monomer; The stated range 1-1112 begins at residue 1 of the precursor; no signal peptide limits are stated; also called human L1CAM antigen
Protocol: (§1) In addition to the competitive ELISA, SPR (surface […] resonance) was measured using Octet RED (ForteBio, USA) according to the manufacturer's protocol to determine the affinities of Ab417 antibody and Ab4M antibody for human and mouse L1CAM. […] AHC (anti-human IgG Fc capture) sensor chip was used to analyze binding kinetics of the antibodies to antigens by examining changes in refractive index which occurs upon association and dissociation of antibody and antigen while transferring the sensor chip to PBS solution, antibody, PBS solution, antigen, and PBS solution in this order.

[2] = molecular target: T1, human L1CAM (purified extracellular …); assay: Octet RED
Protocol: as §1

[3] = molecular target: T1, human L1CAM (purified extracellular …); assay: Octet RED, antibody on AHC sensor, soluble human L1CAM
Protocol: (§2) Affinities of Ab417, Ab417-H6L2 mutant, and Ab417-H6L6 mutant for human and mouse L1CAM were examined using Octet RED (fortebio). […] Each 200 it thereof was added to opaque 96-well plate to prevent light transmission. AHC (anti-human IgG Fc capture) sensor chip was used to analyze binding kinetics of the antibodies to antigens by examining changes in refractive index which occurs upon association and dissociation of antibody and antigen while transferring the sensor chip to PBS solution, antibody, PBS solution, antigen, and PBS solution in this order.
(§3) Despite amino acid substitution, there were no changes in the affinities of these antibodies (Table 4), and there were also no changes in the affinities of these antibodies for mouse L1CAM (Table 5).

[4] = molecular target: T2, mouse L1CAM (purified extracellular domain with S1 tag) (mouse, UniProt P11627 20-1123); assay: not stated there (summary of the filing's affinity measurements)
T2 construct: extracellular domain; also called mouse L1CAM monomer; not shown: S1 tag from the pJEX2T vector

[5] = molecular target: T1, human L1CAM (purified extracellular …); assay: competitive ELISA
Protocol: (§4) The affinities of the purified antibodies for human L1CAM were measured by competitive ELISA. Human L1CAM was prepared at a density of 1×10⁻⁶ M and serially diluted to 1×10⁻¹¹ M using a PBS buffer solution. Respective antibodies were prepared by diluting them in PBS buffer solution at particular concentrations according to their binding capacity. The antigens and antibodies thus diluted were reacted with each other at the same volume ratio, and allowed to react at room temperature for 2 hours.
(§5) 96-well plates (MaxiSorp, Nunc) were coated using the purified human L1CAM which were diluted in a buffer solution (15 mM Na₂CO₃, 34.84 mM NaHCO₃, pH 9.6) at a concentration of 100 ng/well, at 4° C. overnight. Next day, the wells were washed with 0.05% PBS-T buffer solution twice. Difco skim milk (BD) was dissolved in 0.05% PBS-T buffer solution at a concentration of 2%, and 200 μl thereof was added to each well, followed by incubation at room temperature for 1 hour. Then, the wells were washed with 0.05% PBS-T buffer solution twice. To the plate, 100 it of the antigen/antibody reactant that were reacted for 2 hours was added and allowed to react at room temperature for 1 hour. Then, the wells were washed with 0.05% PBS-T buffer solution three times to remove non-antigen bound antibodies. Goat anti-human IgG(Fc)-HRP (Pierce, 1/5000) that specifically recognizes the Fc region of human antibody was added as a secondary antibody, and allowed to react at room temperature for 1 hour. Then, the wells were washed with 0.05% PBS-T buffer solution four times to remove the remaining secondary antibodies. […] Then, 50 μl of 2.5 M H₂SO₄ solution was added to each well to terminate the enzymatic reaction. After terminating the reaction, absorbance was measured at 450 nm (VERSAmax microplate reader, Molecular Devices).
Affinity of the purified Ab417 antibody for human L1CAM was measured by competitive ELISA in the same manner as in Example 3-2.

[6] = molecular target: T1, human L1CAM (purified extracellular …); assay: not stated there (summary of the filing's affinity measurements); rounded summary value, no assay named
[7] = molecular target: T1, human L1CAM (purified extracellular …); assay: competitive ELISA (soluble human L1CAM against coated human L1CAM)
Protocol: as §4, §5

[8] = molecular target: T2, mouse L1CAM (purified extracellular …); assay: Octet RED, antibody on AHC sensor, soluble mouse L1CAM
Protocol: as §2, §3

[9] = molecular target: T2, mouse L1CAM (purified extracellular …); assay: Octet RED (called SPR in the filing), antibody on AHC sensor, soluble mouse L1CAM
Protocol: as §1

[10] = molecular target: T2, mouse L1CAM (purified extracellular …); assay: competitive ELISA with mouse L1CAM

T1 sequence (P32004 20-1112 limits assumed, form in doubt): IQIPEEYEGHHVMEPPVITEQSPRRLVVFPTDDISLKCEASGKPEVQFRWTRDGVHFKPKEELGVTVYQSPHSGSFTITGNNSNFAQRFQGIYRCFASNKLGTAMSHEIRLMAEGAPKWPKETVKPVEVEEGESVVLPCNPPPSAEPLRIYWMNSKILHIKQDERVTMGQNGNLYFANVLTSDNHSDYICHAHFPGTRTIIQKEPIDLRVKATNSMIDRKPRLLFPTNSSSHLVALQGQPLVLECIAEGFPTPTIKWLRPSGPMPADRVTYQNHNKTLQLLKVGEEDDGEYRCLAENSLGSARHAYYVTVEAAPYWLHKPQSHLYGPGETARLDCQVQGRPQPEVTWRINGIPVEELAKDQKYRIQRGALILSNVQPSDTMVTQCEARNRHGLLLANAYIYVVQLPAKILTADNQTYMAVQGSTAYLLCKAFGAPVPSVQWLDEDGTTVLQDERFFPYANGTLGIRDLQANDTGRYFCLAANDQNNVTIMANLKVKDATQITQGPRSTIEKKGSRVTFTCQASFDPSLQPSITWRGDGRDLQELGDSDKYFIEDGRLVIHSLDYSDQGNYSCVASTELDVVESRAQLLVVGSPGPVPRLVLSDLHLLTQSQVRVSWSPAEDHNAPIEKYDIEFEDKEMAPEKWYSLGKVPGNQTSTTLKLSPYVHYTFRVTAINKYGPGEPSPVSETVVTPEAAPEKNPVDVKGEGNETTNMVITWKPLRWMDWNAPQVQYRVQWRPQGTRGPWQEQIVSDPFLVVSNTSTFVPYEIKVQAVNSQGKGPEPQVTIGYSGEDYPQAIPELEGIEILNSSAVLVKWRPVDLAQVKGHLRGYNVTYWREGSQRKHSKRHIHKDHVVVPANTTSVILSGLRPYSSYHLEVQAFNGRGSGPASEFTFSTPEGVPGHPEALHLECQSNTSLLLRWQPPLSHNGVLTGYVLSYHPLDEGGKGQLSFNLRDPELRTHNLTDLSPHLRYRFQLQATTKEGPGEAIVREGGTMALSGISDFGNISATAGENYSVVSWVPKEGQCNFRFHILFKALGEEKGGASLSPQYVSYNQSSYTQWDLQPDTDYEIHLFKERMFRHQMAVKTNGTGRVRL
T2 sequence (P11627 20-1123): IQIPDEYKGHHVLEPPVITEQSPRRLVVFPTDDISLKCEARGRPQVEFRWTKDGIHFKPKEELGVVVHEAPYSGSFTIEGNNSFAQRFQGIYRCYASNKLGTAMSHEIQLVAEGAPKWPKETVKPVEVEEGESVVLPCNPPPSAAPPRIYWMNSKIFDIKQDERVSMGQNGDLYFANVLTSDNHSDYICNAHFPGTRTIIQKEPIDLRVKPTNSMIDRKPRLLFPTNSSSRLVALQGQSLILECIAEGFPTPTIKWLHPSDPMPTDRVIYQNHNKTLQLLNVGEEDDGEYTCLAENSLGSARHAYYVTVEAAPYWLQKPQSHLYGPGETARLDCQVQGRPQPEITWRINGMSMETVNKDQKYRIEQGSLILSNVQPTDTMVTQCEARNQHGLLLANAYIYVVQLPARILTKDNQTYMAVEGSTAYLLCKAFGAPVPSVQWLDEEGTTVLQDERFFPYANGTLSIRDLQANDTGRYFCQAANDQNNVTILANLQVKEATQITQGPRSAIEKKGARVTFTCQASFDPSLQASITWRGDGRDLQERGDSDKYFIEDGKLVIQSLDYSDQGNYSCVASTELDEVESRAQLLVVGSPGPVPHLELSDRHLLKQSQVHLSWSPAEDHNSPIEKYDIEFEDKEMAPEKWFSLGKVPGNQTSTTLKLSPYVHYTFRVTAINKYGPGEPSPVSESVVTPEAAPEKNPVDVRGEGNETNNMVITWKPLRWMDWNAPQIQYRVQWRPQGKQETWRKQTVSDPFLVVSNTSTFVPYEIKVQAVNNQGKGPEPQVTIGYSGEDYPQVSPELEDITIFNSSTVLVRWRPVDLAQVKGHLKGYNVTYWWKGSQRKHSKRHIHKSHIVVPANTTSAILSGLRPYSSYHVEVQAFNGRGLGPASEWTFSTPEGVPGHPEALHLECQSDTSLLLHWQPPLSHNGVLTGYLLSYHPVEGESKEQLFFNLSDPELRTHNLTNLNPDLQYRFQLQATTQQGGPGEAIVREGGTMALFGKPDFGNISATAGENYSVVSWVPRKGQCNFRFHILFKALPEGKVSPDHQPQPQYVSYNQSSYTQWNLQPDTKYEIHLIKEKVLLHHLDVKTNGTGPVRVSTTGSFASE

B1: Ab417 antibody (antibody, V domains shown)
VH: EVQLVESGGGVVQPGRSLRLSCAASGFTFSRFGMHWVRQAPGKGLEWVAFISNDGSNKYYADSVKGRFTISRDNSKNTLYLQMNSLRPEDTAVYYCARGRAYGSGSLFDPWGQGTLVTVSS
VL: DIQLTQSPSSLSASVGDRVTITCRASRTISIYVNWYRQRPGKAPESLIYAASNLHSGVPSRFSGSGSGTDFTLTISSLQPEDFATYYCQQSIGRGVVTFGQGTKLEIK
notes: Whole IgG expressed from pdCMV-dhfrC-Ab417; also called IgG form of Ab4M-18 (codon-optimised)
- Kd [1]: 0.18 nM
- koff [1]: 2.33e-05 s⁻¹
- kon [1]: 127000 M⁻¹ s⁻¹
- fold higher affinity than Ab4M [2]: ~2 fold
- Kd [3]: 0.239 nM
- koff [3]: 4.51e-05 s⁻¹
- kon [3]: 189000 M⁻¹ s⁻¹
- Kd [4]: 0.1 nM
- fold higher affinity than Ab4 [5]: ~92 fold
- fold higher affinity than Ab4M [5]: ~2.4 fold
- Kd [6]: 0.2 nM
- Kd [7]: 1.2 nM
- Kd [8]: 0.108 nM
- koff [8]: 2.64e-05 s⁻¹
- kon [8]: 244000 M⁻¹ s⁻¹
- Kd [9]: 0.0348 nM
- koff [9]: 8.1e-06 s⁻¹
- kon [9]: 233000 M⁻¹ s⁻¹
- Kd [10]: 0.21 nM
- fold higher affinity than Ab4 [10]: ~8 fold
